Measurements: the RNAGym collection of RNA variant scans (doi:10.1021/acssynbio.7b00057)

B1: Pistol ribozyme (parent)
chain: GGGUCGUUGUUCCAUAAUCGCGUGGAUAUGGCACGCAAGUUUCUACCGGGCACCGUAAAUGUCCGACUGGAGCCGUUCGGGCGGCUAUAAACAGACCUCAGGCCCGAAGCGUGGCGGCACCUGCCGCCGGUGGUAAAAAAGAUCGGAAGAGCACACGUCU

Variants of: B1
Experiment: aptazyme ON/OFF ratio, guanine; higher = stronger switching; co-transcriptional cleavage with and without guanine

In order of rising “aptazyme ON/OFF ratio” value:
1. U7A U10A U11C C13U  1
2. U7A U10A U11C  1
3. U7A U10A U11C C13A  1.02
4. U7A U8G U11C C12G C13A  1.02
5. U7A U10A U11C C13G  1.03
6. U7C G9A U10A C13G  1.03
7. U7A U10C U11C  1.03
8. U7A U8G U11C C12U C13G  1.03
9. U7A U10A U11C C12U  1.03
10. U7A U10C U11C C13A  1.03
11. U7A U10C U11C C13U  1.03
12. U7C G9A U10A U11A C13G  1.04
13. U7A U10C U11C C12U  1.04
14. U7A U8G U11C C12G  1.05
15. U7C C12U C13U  1.05
16. U7C C13G  1.05
17. U7A U10A C13G  1.05
18. U7A U10C C13A  1.06
19. U7A U11G C12U C13G  1.06
20. U7A U11C C13G  1.07
21. U7A U10A C13U  1.07
22. U7A U10A C13A  1.07
23. U7A U10C U11C C13G  1.07
24. U7A U10C U11G C12A  1.08
25. U7A U10G U11A C12A C13U  1.08
26. U7A U10C C13G  1.08
27. U7A U10G C12G C13A  1.08
28. U7A U10G C12G C13G  1.08
29. U7C G9A U10A U11A C13A  1.08
30. U7A U11A C12G C13A  1.08
31. U7A U10A U11C C12A  1.08
32. U7A U10C C12U C13G  1.09
33. U7A U10G U11C C12U  1.09
34. U7A U10A C12A C13G  1.1
35. U7A U10C U11C C12A  1.1
36. U7A U10A U11C C12G  1.1
37. U7A U10G U11A C12A C13G  1.11
38. U7A U10A  1.11
39. U7A U10A U11G C12U C13A  1.11
40. U7A U10G U11C C12A C13G  1.12
41. U7A U8G U11C C12A C13G  1.12
42. U7A U10C C12A C13G  1.12
43. U7A U10G U11A C12U  1.13
44. U7A U10C C13U  1.13
45. U7A U11G C12U C13U  1.13
46. U7A U11A C12G C13G  1.14
47. U7A U10C U11A C12U C13G  1.14
48. U7A U10A C12U C13G  1.14
49. U7A U10C U11C C12G  1.14
50. U7C C13A  1.14
51. U7C G9A U10A C12A  1.15
52. U7A U11G C12U C13A  1.15
53. U7A U10G C12A  1.16
54. U7A U10C C12U C13A  1.16
55. U7C G9A U10A U11A C13U  1.16
56. U7A U11C C12G C13G  1.16
57. U7A U10G U11G C12A C13G  1.16
58. U7A U11G C12A  1.16
59. U7A U10G U11A C12A C13A  1.17
60. U7A U10C U11A C12U C13A  1.17
61. U7A U8G U11C C12A C13A  1.17
62. U7C C12G C13G  1.17
63. U7C G9A  1.17
64. U7A U8G U11C C12G C13G  1.17
65. U7C G9A U10A C12G  1.18
66. U7C G9A C12G C13A  1.18
67. U7C G9A C12U C13G  1.18
68. U7C C12G C13A  1.18
69. U7A U10C U11G C12G C13U  1.18
70. U7C G9A U10A C12G C13G  1.18
71. U7A U10A C12U C13A  1.18
72. U7C C13U  1.18
73. U7A U11C C13A  1.19
74. U7A U8G U11C C12A C13U  1.19
75. U7A U10G U11G C12A C13A  1.19
76. U7C G9A U10A U11A  1.19
77. U7A U10G U11C C12A C13U  1.2
78. U7A U10G C12G C13U  1.2
79. U7C G9A U10A U11A C12G  1.2
80. U7C G9A C12G C13G  1.2
81. U7A U10C U11A  1.2
82. U7A U10G U11G C12U C13U  1.2
83. U7A U8G U11C C12G C13U  1.2
84. U7A U11C C13U  1.21
85. U7A U10A U11A  1.21
86. U7C G9A U10A C12G C13U  1.21
87. U7A U10C C12A C13U  1.21
88. U7A U10G U11C C12U C13U  1.21
89. U7A U10C U11A C12G C13A  1.22
90. U7C G9A C12U C13A  1.22
91. U7C G9A C12U C13U  1.22
92. U7A U10G U11G C12A C13U  1.22
93. U7A U11G C12U  1.22
94. U7A U10G C13G  1.23
95. U7A U10C U11A C12A  1.23
96. U7A U10C U11G C12A C13G  1.23
97. U7C G9A U10A C13A  1.23
98. U7C G9A C12G C13U  1.23
99. U7A U11C C12G C13U  1.23
100. U7A U10G U11G C12U C13G  1.23
101. U7A U10G U11A C12G  1.24
102. U7A U10C U11G C12U  1.24
103. U7A U8G U11G C13G  1.24
104. U7C G9A U10A U11A C12A  1.24
105. U7A U11A C12G C13U  1.24
106. U7A U10C U11G C12G C13A  1.24
107. U7A U10C U11G  1.25
108. U7A U10C U11A C12G  1.26
109. U7A U10C U11A C12G C13G  1.26
110. U7A U10C U11G C12G  1.26
111. U7A U8G U11G C13A  1.26
112. U7A U10C U11G C12A C13U  1.26
113. U7A U10C U11A C12U C13U  1.26
114. U7A U11A C12A C13G  1.26
115. U7A U10G C13U  1.27
116. U7A U10A C12A C13A  1.27
117. U7C G9A U10A U11A C12U  1.27
118. U7A U10A C12U C13U  1.27
119. U7A U11C C12U C13A  1.27
120. U7A U11G C12G  1.27
121. U7A U10G U11G C12U  1.28
122. U7A U10C U11G C12A C13A  1.28
123. U7C C12U C13G  1.28
124. U7A U10G C12U  1.29
125. U7A U10C U11A C12G C13U  1.29
126. U7A U10G U11G C12A  1.29
127. U7A U10C U11A C12U  1.3
128. U7A U11A C12A C13A  1.3
129. U7A U11C C12G C13A  1.3
130. U7A U10G U11C C12U C13A  1.3
131. U7A U10G C13A  1.31
132. U7A U8G U11C C12U  1.31
133. U7A U8G U11G C13U  1.31
134. U7A U10C U11G C12G C13G  1.31
135. U7C  1.31
136. U7A U10C C12U C13U  1.33
137. U7A U10G U11C C12A C13A  1.33
138. U7A U10G U11G C12U C13A  1.33
139. U7C G9A C12A  1.33
140. U7C G9A U10A C13U  1.34
141. U7C G9A U10A C12U  1.35
142. U7A U10A U11G  1.35
143. U7A U10A U11G C12U C13U  1.35
144. U7C G9A U10A C12G C13A  1.35
145. U7A U10C C12A C13A  1.35
146. U7A U10G C12G  1.36
147. U7A U10G U11A C12A  1.36
148. U7A U8G U11C C12U C13U  1.36
149. U7A U11C C12U C13U  1.38
150. U7A U11C C12U C13G  1.38
151. U7A U10A C12A C13U  1.39
152. U7A U11A C12A C13U  1.41
153. U7A U10G U11C C12U C13G  1.41
154. U7C C12G C13U  1.43
155. U7A U8G U11C C12U C13A  1.43
156. U7A U10G U11G C12G  1.45
157. U7A U10A U11G C12U C13G  1.45
158. U7C C12U C13A  1.55
159. U7A U10G  1.56
160. U7C C12A  1.61
161. U7A U10G U11C C12G  1.64
162. U7C C12U  1.73
163. U7A U10G U11C C12A  1.76
164. U7C C12G  1.85
165. U7C G9A U10A  1.88
166. U7A U8G U11G  1.95
167. U7A U10C  4.51
